Patent US20240166757A1

Key:
[1] = target: hFcγR 2b (human) (UniProt P31994); experiment: BLI; biotinylated avi-tagged receptor-monomeric Fc fusion on streptavidin biosensor, antibody titrated as analyte; 1:1 global fit
[2] = target: hCD64 P2 mFc.67 N297A LALA-PG avi (human) (UniProt P12314); experiment: as above
[3] = target: hFcRN mFc.67 N297A IHH avi biotin (human) (UniProt P55899); experiment: BLI at pH 7.46 (row 'hFcRN pH 7.46'); biotinylated hFcRN-monomeric Fc fusion on streptavidin biosensor, antibody titrated as analyte; 1:1 global fit
[4] = target: hFcRN mFc.67 N297A IHH avi biotin (human) (UniProt P55899); experiment: BLI at pH 6.09 (row 'hFcRN pH 6.09'); biotinylated hFcRN-monomeric Fc fusion on streptavidin biosensor, antibody titrated as analyte; 1:1 global fit
[5] = target: hCD70 Biotin E131664-01 (human) (UniProt P32970); experiment: BLI; antibody as probe on AHC (anti-Fc) biosensor, hCD70 Biotin titrated as analyte; '37 C' printed with the probe; 1:1 global fit
[6] = target: hFcgR 3a F158 mFc.67 N297A LALAPG avi biotin (human) (UniProt P08637); experiment: BLI; biotinylated avi-tagged receptor-monomeric Fc fusion on streptavidin biosensor, antibody titrated as analyte; 1:1 global fit
[7] = target: hFcgR 2a H131 mFc.67 N297A LALAPG avi biotin (human) (UniProt P12318); experiment: as above
[8] = target: hFcgR 2a R131 mFc.67 N297A LALAPG avi biotin (human) (UniProt P12318); experiment: as above
[9] = target: cynomolgus FcγRIIIa receptor overexpressed on CHO cells (cynomolgus) (UniProt Q8SPW2); experiment: flow cytometry on CHO cells overexpressing cynomolgus FcγRIIIa (CHO/cynoCD16); detection with anti-human IgG-PE
[10] = target: high affinity human FcγRIIIa receptor (158V) overexpressed on CHO cells (human) (UniProt P08637); experiment: flow cytometry on CHO cells overexpressing human FcγRIIIa 158V (CHO/hCD16); detection with anti-human IgG-PE
[11] = target: hFcgR 3a V158 mFc.67 N297A LALAPG avi biotin (human) (UniProt P08637); experiment: BLI; biotinylated FcγR fusion on streptavidin biosensor, antibody titrated; 1:1 global fit
[12] = target: hCD70 Biotin E131664-01 (human) (UniProt P32970); experiment: BLI; antibody as probe on AHC (anti-Fc) biosensor, hCD70 Biotin titrated as analyte; '37 C' printed with the probe; 1:1 global fit [Cont.]

hFcγR 2b (human), sequence (P31994 43-217): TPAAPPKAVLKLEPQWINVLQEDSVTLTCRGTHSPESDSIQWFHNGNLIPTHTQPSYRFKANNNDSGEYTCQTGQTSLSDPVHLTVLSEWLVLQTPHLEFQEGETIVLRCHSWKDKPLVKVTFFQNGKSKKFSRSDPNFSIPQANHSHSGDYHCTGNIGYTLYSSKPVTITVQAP
hCD70 Biotin E131664-01 (human), sequence (P32970 39-193 limits assumed): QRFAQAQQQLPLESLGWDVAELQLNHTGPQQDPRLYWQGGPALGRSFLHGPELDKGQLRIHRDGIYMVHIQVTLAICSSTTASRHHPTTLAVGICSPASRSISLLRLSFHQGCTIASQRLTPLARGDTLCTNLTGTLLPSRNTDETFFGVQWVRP
cynomolgus FcγRIIIa receptor overexpressed on CHO cells (cynomolgus), sequence (Q8SPW2 17-254): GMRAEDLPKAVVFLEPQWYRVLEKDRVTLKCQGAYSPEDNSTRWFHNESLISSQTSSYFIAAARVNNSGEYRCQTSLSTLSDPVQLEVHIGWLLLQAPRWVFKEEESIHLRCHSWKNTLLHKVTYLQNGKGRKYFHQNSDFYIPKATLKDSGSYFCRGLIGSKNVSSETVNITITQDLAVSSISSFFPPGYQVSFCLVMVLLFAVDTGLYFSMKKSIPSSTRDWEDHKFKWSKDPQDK
high affinity human FcγRIIIa receptor (158V) overexpressed on CHO cells (human), sequence (P08637 17-254 F176V): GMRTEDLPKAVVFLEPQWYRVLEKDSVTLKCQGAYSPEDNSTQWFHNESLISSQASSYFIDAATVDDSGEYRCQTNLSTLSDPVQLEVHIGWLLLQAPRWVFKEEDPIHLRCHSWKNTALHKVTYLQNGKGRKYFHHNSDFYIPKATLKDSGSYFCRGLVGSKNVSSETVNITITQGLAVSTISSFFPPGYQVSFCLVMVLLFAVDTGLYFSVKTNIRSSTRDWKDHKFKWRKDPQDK

| Kd [1] | Kd [2] | Kd [3] | Kd [4] | Kd [5] | Kd [6] | kon [6] | kon [1] | Kd [7] | kon [7] | Kd [8] | kon [8] | kon [2] | EC50 (read off the curve) [9] | EC50 (read off the curve) [10] | kon [3] | Kd [11] | kon [4] | kon [12] | Binder |
| --- | --- | --- | --- | --- | --- | --- | --- | --- | --- | --- | --- | --- | --- | --- | --- | --- | --- | --- | --- |
| 27000 nM | 0.42 nM | 16700 nM | 19 nM | 0.24 nM | – | – | – | – | – | – | – | – | – | – | – | – | – | – | SEA-CD70 (nonfucosylated h1F6) (antibody, INN chains, looked up, V domains shown, part only, nonfucosylated afucosylated) VH: QVQLVQSGAEVKKPGASVKVSCKASGYTFTNYGMNWVRQAPGQGLKWMGWINTYTGEPTYADAFKGRVTMTRDTSISTAYMELSRLRSDDTAVYYCARDYGDYGMDYWGQGTTVTVSS VL: DIVMTQSPDSLAVSLGERATINCRASKSVSTSGYSFMHWYQQKPGQPPKLLIYLASNLESGVPDRFSGSGSGTDFTLTISSLQAEDVAVYYCQHSREVPWTFGQGTKVEIK |
| 25000 nM | 0.66 nM | 15000 nM | 17 nM | 0.23 nM | 5300 nM | 27000 M⁻¹ s⁻¹ | 26000 M⁻¹ s⁻¹ | 2600 nM | 100000 M⁻¹ s⁻¹ | 4500 nM | 77000 M⁻¹ s⁻¹ | 770000 M⁻¹ s⁻¹ | 1 µg/mL | 1 µg/mL | 42000 M⁻¹ s⁻¹ | 860 nM | 720000 M⁻¹ s⁻¹ | 270000 M⁻¹ s⁻¹ | SGN-70 (fucosylated h1F6) (antibody, INN chains, looked up, V domains shown, part only) VH: QVQLVQSGAEVKKPGASVKVSCKASGYTFTNYGMNWVRQAPGQGLKWMGWINTYTGEPTYADAFKGRVTMTRDTSISTAYMELSRLRSDDTAVYYCARDYGDYGMDYWGQGTTVTVSS VL: DIVMTQSPDSLAVSLGERATINCRASKSVSTSGYSFMHWYQQKPGQPPKLLIYLASNLESGVPDRFSGSGSGTDFTLTISSLQAEDVAVYYCQHSREVPWTFGQGTKVEIK |
